Where “and” joins values, the source holds several entries; their conditions need not be identical. Identical values can stand only once. Like-named read-outs stand apart in the source and are kept apart here.
Legend:
[1] = Static small animal PET, integrin αvβ6-positive tumor model; format: in vivo, mouse; conditions: female, athymic nude (Nu/Nu), mouse, in vivo, iv, 100 uCi, total radioactivity, PET, 1 h p.i., average ± SD, n = 3
Text: (§1) Eight planes were acquired in the coronal section.
(§2) Supplementary Figure 5. [18F]FP-R01-MG-F2 Static PET Imaging. (A) Representative PET images of nu/nu mice bearing in integrin αvβ6-positive A431 xenografts (left) and integrin αvβ6-negative 293 xenograft (right) models following injection of […] [18F]FP-R01-MG-F2. Location of tumor and kidneys are indicated by the letters T and K.

[2] = tested on: integrin αvβ6-positive A431 xenografts; assay: as above; format: in vivo, mouse
Text: as §1, §2

[3] = tested on: integrin αvβ6-positive A431 xenografts; assay: as above; format: in vivo, mouse; conditions: microPET 1 hr, individual mice, listed as Ro1-MG NODAGA Ga-68
clinical = conditions: human, iv, total radioactivity
Procedure: (§3) The administered dose was 55.5–96.2MBq (1.5–2.6 mCi). The scan (6 bed positions, 2 min bed^−1) covered an area that included the top of the skull to the middle of the femur. OSEM was applied for reconstruction. […] The CT scan (140 kV, 35 mA, pitch of 1:1, layer of 5 mm thickness; layer spacing of 3 mm, 512*512 matrix, field of view of 70 cm) also covered the top of the skull to the middle of the femur. […] Immediately upon completion of the first scan, the second whole-body static PET data was acquired. Sequentially, multiple whole-body static PET scans were acquired, one by one, from 0 to 75 min.
(§4) Upon co-registration of the PET and CT images, the CT images were used to determine regions of interest for the organs or tissues reported in the manuscript. These ROIs were applied to the PET images of the brain, pituitary gland, breast, lower and upper large intestine, small intestine, stomach, pancreas, heart wall, liver, lung, muscle, red marrow, bone, skin, and thyroid gland. For high uptake organs such as the kidneys, bladder and for the whole body, threshold-based segmentation of PET images were used to determine a close-fitting ROI around the entire organ or whole body. In order to determine accuracy, these PET-derived ROIs were compared to the CT overlay for a close match.

[4] = tested on: pancreatic, cervical and lung cancer; conditions: one patient, Fig 4C
Procedure: as §3, §4

[5] = microPET 1 hr, individual mice, listed as Ro1-MG NODAGA Ga-68

CC[C@H](C)[C@@H]1NC(=O)[C@@H](NC(=O)CNC(=O)CCC(C(=O)O)N2CCN(CC(=O)O)CCN(CC(=O)O)CC2)CSSC[C@@H]2NC(=O)[C@H](C)NC(=O)CNC(=O)[C@@H]3CCCN3C(=O)[C@@H]3CSSC[C@@H](C(=O)NCC(N)=O)NC(=O)[C@H](Cc4ccc(O)cc4)NC(=O)CNC(=O)[C@H](CC(N)=O)NC(=O)CNC(=O)[C@H](CCCNC(=N)N)NC(=O)[C@H](CSSC[C@H](NC(=O)[C@H](CCCNC(=N)N)NC(=O)[C@H](Cc4ccccc4)NC(=O)[C@H](CC(C)C)NC(=O)[C@H](CC(C)C)NC(=O)[C@H]([C@@H](C)O)NC(=O)CNC(=O)[C@H](CC(C)C)NC(=O)[C@H](CC(=O)O)NC(=O)[C@H]([C@@H](C)O)NC(=O)[C@H](CCCNC(=N)N)NC(=O)CNC(=O)[C@H](CC(N)=O)NC(=O)[C@H](CC(C)C)NC1=O)C(=O)N[C@@H](CCCNC(=N)N)C(=O)N[C@@H](CCCNC(=N)N)C(=O)N[C@@H](CC(=O)O)C(=O)N[C@@H](CO)C(=O)N[C@@H](CC(=O)O)C(=O)N3)NC(=O)[C@H]([C@@H](C)CC)NC2=O (stereo partly shown) [[^68Ga]NODAGA-R01-MG, metal not drawn]
tissue uptake at 1 h ([1]; αvβ6 (+), read-out: Tumor): 2.78 ± 0.3 %ID/g | tissue uptake at 1 h ([1]; read-out: Kidney): 30.1 ± 5.51 %ID/g | tissue uptake at 1 h ([1]; read-out: Liver): 1.2 ± 0.35 %ID/g | tissue uptake at 1 h ([1]; read-out: Muscle): 0.589 ± 0.124 %ID/g | tissue to tissue ratio at 1 h ([1]; read-out: T:M Ratio (tumor-to-muscle)): 4.86 ± 1.04 | Muscle ([2]; PET, 1 h p.i., average ± SD, n = 3): 0.6 ± 0.1 %ID g^−1 | Kidney [2, 5]: 34.6175 and 26.042 and 24.5731 and 34.9763 | Muscle [2, 5]: 0.5495 and 0.6119 and 0.4496 and 0.7461 | Tumor avb6(+) ([3]; source data of Table 3): 3.142 and 2.463 and 2.614 and 2.906 | Liver [3]: 0.7389 and 1.216 and 1.257 and 1.6013 | SUV (clinical; both, kidney, average SUVmean, ~1 h p.i., cancer patients): 19.9 ± 2.23 SUV | SUV (clinical; both, normal pancreas, SUVmean, n = 5, ± S.D.): 1.79 ± 0.47 SUV | SUV (clinical; both, pancreatic tumour, average SUVmean, pancreatic cancer, pancreatic cancer patients): 4.2 ± 0.1 SUV | SUV (clinical; both, small intestines, average SUVmean, cancer patients): 7.06 ± 2.74 SUV | SUV (clinical; both, stomach, average SUVmean, cancer patients): 8.87 ± 6.52 SUV | SUV (clinical; head of pancreas, SUVmean, one pancreatic cancer patient (Fig 4d)): ~3.1 SUV | SUV (clinical; lung tumor, SUVmean, patient, squamous cell carcinoma of the lung): 2.2 SUV | SUV (clinical; tail of pancreas, SUVmean, one pancreatic cancer patient (Fig 4d)): ~4.4 SUV | SUV (clinical; tumor in tail of pancreas, 2.2 mCi, SUVmean, patient, ~50 minutes p.i.): 4.3 SUV | ROI uptake Bl (bladder) ([4]; 9 min p.i.): 1.885 | ROI uptake Bn (osteogenic cells) ([4]; 9 min p.i.): 0.4959 | ROI uptake Br (brain) ([4]; 9 min p.i.): 0.05775 | ROI uptake Brs (breast) ([4]; 9 min p.i.): 0.428 | ROI uptake HC (heart contents) ([4]; 9 min p.i.): 1.158 | ROI uptake HW (heart wall) ([4]; 9 min p.i.): 0.7507 | ROI uptake LLI (lower large intestine) ([4]; 9 min p.i.): 1.4 | ROI uptake Ln (lung) ([4]; 9 min p.i.): 0.3091 | ROI uptake Lv (liver) ([4]; 9 min p.i.): 0.8628 | ROI uptake Ms (muscle) ([4]; 9 min p.i.): 0.6964 | ROI uptake Pn (pancreas) ([4]; 9 min p.i.): 1.576 | ROI uptake Pt (pituitary gland) ([4]; 9 min p.i.): 2.269 | ROI uptake RM (red marrow) ([4]; 9 min p.i.): 0.2412 | ROI uptake SI (small intestine) ([4]; 9 min p.i.): 6.974 | ROI uptake Sk (skin) ([4]; 9 min p.i.): 0.09851 | ROI uptake Sp (spleen) ([4]; 9 min p.i.): 0.7065 | ROI uptake St (stomach) ([4]; 9 min p.i.): 2.524 | ROI uptake TB (total body) ([4]; 9 min p.i.): 0.6998 | ROI uptake Tm (thymus) ([4]; 9 min p.i.): 0.7337 | ROI uptake Tr (thyroid) ([4]; 9 min p.i.): 1.94 | ROI uptake ULI (upper large intestine) ([4]; 9 min p.i.): 1.923 | ROI uptake Bl (bladder) ([4]; 22 min p.i.): 6.4 | ROI uptake Bn (osteogenic cells) ([4]; 22 min p.i.): 0.4058 | ROI uptake Br (brain) ([4]; 22 min p.i.): 0.03902 | ROI uptake Brs (breast) ([4]; 22 min p.i.): 0.5151 | ROI uptake HC (heart contents) ([4]; 22 min p.i.): 0.7844 | ROI uptake HW (heart wall) ([4]; 22 min p.i.): 0.4761 | ROI uptake LLI (lower large intestine) ([4]; 22 min p.i.): 1.495 | ROI uptake Ln (lung) ([4]; 22 min p.i.): 0.3044 | ROI uptake Lv (liver) ([4]; 22 min p.i.): 0.7375 | ROI uptake Ms (muscle) ([4]; 22 min p.i.): 0.6868 | ROI uptake Pn (pancreas) ([4]; 22 min p.i.): 1.214 | ROI uptake Pt (pituitary gland) ([4]; 22 min p.i.): 1.986 | ROI uptake RM (red marrow) ([4]; 22 min p.i.): 0.1015 | ROI uptake SI (small intestine) ([4]; 22 min p.i.): 7.153 | ROI uptake Sk (skin) ([4]; 22 min p.i.): 0.09365 | ROI uptake Sp (spleen) ([4]; 22 min p.i.): 0.5971 | ROI uptake St (stomach) ([4]; 22 min p.i.): 2.337 | ROI uptake TB (total body) ([4]; 22 min p.i.): 0.6751 | ROI uptake Tm (thymus) ([4]; 22 min p.i.): 0.7375 | ROI uptake Tr (thyroid) ([4]; 22 min p.i.): 0.7922 | ROI uptake ULI (upper large intestine) ([4]; 22 min p.i.): 1.432 | ROI uptake Bl (bladder) ([4]; 36 min p.i.): 8.426 | ROI uptake Bn (osteogenic cells) ([4]; 36 min p.i.): 0.4395 | ROI uptake Br (brain) ([4]; 36 min p.i.): 0.03531 | ROI uptake Brs (breast) ([4]; 36 min p.i.): 0.6278 | ROI uptake HC (heart contents) ([4]; 36 min p.i.): 0.722 | ROI uptake HW (heart wall) ([4]; 36 min p.i.): 0.4798 | ROI uptake LLI (lower large intestine) ([4]; 36 min p.i.): 1.238 | ROI uptake Ln (lung) ([4]; 36 min p.i.): 0.3094 | ROI uptake Lv (liver) ([4]; 36 min p.i.): 0.6906 | ROI uptake Ms (muscle) ([4]; 36 min p.i.): 0.7579 | ROI uptake Pn (pancreas) ([4]; 36 min p.i.): 1.296 | ROI uptake Pt (pituitary gland) ([4]; 36 min p.i.): 2.22

Reference: PMC6791878, “Evaluation of integrin αvβ6 cystine knot PET tracers to detect cancer and idiopathic pulmonary fibrosis” (Nature Communications, 2019)
